One data set deals with CCc1cccc(O)c1O. As to the kind of experiment: purified protein. The note with it: 0.1 M Tris-HCl pH 7.4, 0.1 mM MnCl2, 32.5 °C, 20 µg/mL enzyme, 0.05-1.0 mM substrate.
In another data set the test system is Cc1cccc(O)c1O. As to the kind of experiment: purified protein. The note with it: 0.1 M Tris-HCl pH 7.4, 0.1 mM MnCl2, 32.5 °C, 40 µg/mL enzyme, 0.2-1.2 mM substrate.

Regarding “BLC23O (Halalkalibacterium ligniniphilum)”, in the data set on CCc1cccc(O)c1O, the Km (in general, the concentration of substrate that gives half-maximal velocity) stood at 193 ± 17 µM; the kcat (as a rule, the number of substrate molecules converted per active site and unit of time at saturation) is 0.47 ± 0.09 s⁻¹; the kcat/Km (usually the turnover number divided by the Michaelis constant) amounted to 2400 M⁻¹ s⁻¹. Also, in the data set on Cc1cccc(O)c1O, the Km is 418 ± 25 µM, the turnover number (kcat) worked out at 0.2 ± 0.03 s⁻¹ and the kcat/Km was determined as 480 M⁻¹ s⁻¹.

Source of the values: paper PMC8671467, “A novel Bacillus ligniniphilus catechol 2,3-dioxygenase shows unique substrate preference and metal requirement” (Scientific Reports, 2021).
